Data from article PMC3789969, “The Allosteric Role of the AAA^+ Domain of ChlD Protein from the Magnesium Chelatase of Synechocystis Species PCC 6803*” (The Journal of Biological Chemistry, 2013).

How the values were obtained:
Details in all cases: both partners purified
[1] = biological target: T1, His6-ChlD (K49A), Walker A mutant (Synechocystis sp. PCC 6803, UniProt P72772 1-676, K49A); assay: pull-down; co-purification on Ni(II) chelating Sepharose through His6-ChlD; 2 μM ChlD and 2 μM ChlI, with nucleotide (methods: 5 mM ADP; legend: ATP), 15 mM MgCl2, 50 mM Tricine, 0.3 M glycerol, pH 7.9, room temperature; SDS-PAGE of the resin
T1 construct: Magnesium chelatase subunit ChlD, Synechocystis sp; PCC 6803, with K49A in the Walker A motif; Same construct as m2 with one point mutation; also called K49A mutant; source: Rosetta2(DE3) pLysS, site-directed mutant (QuikChange) of pET9a-His6ChlD, purified

[2] = biological target: T2, His6-ChlD, wild type, of the magnesium chelatase of Synechocystis sp. PCC 6803 (Synechocystis sp. PCC 6803, UniProt P72772 1-676); assay: chelatase assembly titration (steady-state enzyme activity); apparent; ChlI titrated against 0.1 μM His6-ChlD with 0.4 μM ChlH, steady-state rate of MgDIX formation fitted to Equation 3; 50 mM MOPS/KOH, 0.3 M glycerol, 1 mM DTT, 10 mM free Mg2+, I = 0.1 with KCl, 8 μM DIX, pH 7.7, 34 °C
T2 construct: Magnesium chelatase subunit ChlD, Synechocystis sp; PCC 6803; also called wild type ChlD; wild type His6-ChlD; source: Rosetta2(DE3) pLysS, vector pET9a-His6ChlD, purified

[3] = biological target: T3, His6-ChlD (E152Q), Walker B mutant (Synechocystis sp. PCC 6803, UniProt P72772 1-676, E152Q); assay: as above
T3 construct: Magnesium chelatase subunit ChlD, Synechocystis sp; PCC 6803, with E152Q in the Walker B motif; Same construct as m2 with one point mutation; also called E152Q mutant; source: Rosetta2(DE3) pLysS, site-directed mutant (QuikChange) of pET9a-His6ChlD, purified

[4] = biological target: T4, His6-ChlD (R208A), arginine finger mutant (Synechocystis sp. PCC 6803, UniProt P72772 1-676, R208A); assay: as above
T4 construct: Magnesium chelatase subunit ChlD, Synechocystis sp; PCC 6803, with R208A removing the arginine finger; Same construct as m2 with one point mutation; also called R208A mutant; source: Rosetta2(DE3) pLysS, site-directed mutant (QuikChange) of pET9a-His6ChlD, purified

[5] = biological target: T5, His6-ChlD (R289A), Sensor II mutant (Synechocystis sp. PCC 6803, UniProt P72772 1-676, R289A); assay: as above
T5 construct: Magnesium chelatase subunit ChlD, Synechocystis sp; PCC 6803, with R289A removing the Sensor II arginine; Same construct as m2 with one point mutation; also called R289A mutant; Sensor II arginine mutant; source: Rosetta2(DE3) pLysS, site-directed mutant (QuikChange) of pET9a-His6ChlD, purified
T5 sequence (P72772 whole entry R289A): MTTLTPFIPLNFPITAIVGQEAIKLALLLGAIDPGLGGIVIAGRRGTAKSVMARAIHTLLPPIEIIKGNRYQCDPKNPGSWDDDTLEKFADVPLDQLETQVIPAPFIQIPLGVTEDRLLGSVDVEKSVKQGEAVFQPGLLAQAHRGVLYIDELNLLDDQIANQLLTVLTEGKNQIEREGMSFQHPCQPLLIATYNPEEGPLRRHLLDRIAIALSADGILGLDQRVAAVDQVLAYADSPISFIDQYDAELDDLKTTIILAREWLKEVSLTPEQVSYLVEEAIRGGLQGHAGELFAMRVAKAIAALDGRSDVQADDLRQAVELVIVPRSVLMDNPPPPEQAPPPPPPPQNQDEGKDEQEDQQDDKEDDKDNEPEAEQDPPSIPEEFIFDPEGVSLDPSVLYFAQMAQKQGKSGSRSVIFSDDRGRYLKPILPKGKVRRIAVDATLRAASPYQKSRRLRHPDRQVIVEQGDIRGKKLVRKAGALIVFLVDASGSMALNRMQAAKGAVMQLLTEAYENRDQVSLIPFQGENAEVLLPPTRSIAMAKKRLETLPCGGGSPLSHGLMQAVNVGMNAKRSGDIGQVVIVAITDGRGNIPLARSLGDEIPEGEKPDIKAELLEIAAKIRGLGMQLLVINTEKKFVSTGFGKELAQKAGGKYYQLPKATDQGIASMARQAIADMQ

T4 sequence (P72772 whole entry R208A): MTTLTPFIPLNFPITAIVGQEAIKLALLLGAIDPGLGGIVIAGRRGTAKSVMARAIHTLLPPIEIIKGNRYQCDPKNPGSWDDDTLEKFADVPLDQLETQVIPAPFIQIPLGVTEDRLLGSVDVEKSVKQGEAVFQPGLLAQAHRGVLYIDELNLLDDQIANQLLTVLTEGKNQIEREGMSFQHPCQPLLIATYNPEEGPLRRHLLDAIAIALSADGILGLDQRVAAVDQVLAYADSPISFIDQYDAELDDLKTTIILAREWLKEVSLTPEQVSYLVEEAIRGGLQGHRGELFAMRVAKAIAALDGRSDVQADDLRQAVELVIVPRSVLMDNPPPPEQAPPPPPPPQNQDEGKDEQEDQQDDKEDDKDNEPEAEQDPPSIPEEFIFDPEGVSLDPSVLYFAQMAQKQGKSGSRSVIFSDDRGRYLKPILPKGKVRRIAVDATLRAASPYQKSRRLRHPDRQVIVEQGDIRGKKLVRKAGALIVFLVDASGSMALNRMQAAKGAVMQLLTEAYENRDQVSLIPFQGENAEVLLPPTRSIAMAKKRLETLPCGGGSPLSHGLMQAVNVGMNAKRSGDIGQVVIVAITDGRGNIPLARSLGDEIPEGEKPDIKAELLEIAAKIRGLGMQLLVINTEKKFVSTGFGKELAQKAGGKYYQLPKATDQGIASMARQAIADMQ
T2 sequence (P72772 whole entry): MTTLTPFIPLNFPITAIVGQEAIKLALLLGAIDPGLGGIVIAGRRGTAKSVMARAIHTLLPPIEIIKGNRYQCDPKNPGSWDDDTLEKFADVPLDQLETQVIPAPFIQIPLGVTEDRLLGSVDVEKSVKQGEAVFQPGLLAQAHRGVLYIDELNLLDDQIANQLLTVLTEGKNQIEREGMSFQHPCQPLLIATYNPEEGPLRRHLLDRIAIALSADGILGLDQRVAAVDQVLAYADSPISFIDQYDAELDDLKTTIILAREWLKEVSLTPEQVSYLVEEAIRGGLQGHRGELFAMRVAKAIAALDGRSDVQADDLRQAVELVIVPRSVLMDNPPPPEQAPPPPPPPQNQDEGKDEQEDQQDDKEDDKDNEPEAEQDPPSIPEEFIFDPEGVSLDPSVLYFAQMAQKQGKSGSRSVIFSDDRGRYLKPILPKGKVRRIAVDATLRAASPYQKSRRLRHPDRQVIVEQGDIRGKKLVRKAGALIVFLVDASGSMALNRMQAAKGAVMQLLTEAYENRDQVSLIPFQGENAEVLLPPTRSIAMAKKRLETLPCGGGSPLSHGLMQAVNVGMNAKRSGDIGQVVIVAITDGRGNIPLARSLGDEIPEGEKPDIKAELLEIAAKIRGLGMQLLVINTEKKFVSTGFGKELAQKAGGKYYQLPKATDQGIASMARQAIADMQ
T3 sequence (P72772 whole entry E152Q): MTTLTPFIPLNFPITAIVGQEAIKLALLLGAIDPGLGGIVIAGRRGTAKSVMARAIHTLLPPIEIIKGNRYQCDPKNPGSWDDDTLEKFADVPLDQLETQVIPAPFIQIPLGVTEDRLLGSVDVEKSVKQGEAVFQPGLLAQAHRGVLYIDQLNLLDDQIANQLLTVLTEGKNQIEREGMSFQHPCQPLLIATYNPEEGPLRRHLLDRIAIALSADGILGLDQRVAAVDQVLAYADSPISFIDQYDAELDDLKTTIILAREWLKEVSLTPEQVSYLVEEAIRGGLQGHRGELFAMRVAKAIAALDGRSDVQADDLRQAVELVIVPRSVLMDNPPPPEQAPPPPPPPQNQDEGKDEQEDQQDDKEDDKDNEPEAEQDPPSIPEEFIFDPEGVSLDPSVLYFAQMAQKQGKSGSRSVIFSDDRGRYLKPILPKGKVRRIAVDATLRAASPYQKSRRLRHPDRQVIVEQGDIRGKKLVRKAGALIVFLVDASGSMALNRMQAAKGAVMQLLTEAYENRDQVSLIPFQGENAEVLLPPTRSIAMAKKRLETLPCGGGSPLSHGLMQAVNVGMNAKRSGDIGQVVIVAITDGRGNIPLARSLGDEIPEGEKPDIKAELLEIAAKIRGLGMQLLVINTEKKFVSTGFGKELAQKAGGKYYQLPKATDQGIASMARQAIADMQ
T1 sequence (P72772 whole entry K49A): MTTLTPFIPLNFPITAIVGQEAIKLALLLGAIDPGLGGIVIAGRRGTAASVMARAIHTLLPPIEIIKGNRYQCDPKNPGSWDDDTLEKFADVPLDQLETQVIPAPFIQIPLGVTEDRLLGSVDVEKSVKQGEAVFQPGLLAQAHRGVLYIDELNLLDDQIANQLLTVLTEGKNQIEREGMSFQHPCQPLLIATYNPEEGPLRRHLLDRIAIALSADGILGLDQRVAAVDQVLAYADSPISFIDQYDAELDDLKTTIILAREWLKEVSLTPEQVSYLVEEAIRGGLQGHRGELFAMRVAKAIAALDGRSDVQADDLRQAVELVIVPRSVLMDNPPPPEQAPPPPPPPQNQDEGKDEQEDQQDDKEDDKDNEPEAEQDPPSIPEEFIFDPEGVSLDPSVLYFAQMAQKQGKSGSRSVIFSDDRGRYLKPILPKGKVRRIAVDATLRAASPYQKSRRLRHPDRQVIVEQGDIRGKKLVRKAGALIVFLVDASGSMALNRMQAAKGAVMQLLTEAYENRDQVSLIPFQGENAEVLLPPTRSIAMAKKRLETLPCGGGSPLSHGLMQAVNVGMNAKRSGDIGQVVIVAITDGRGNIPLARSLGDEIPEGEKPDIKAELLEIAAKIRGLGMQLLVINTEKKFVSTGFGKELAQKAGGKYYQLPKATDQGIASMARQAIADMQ

binding result [1]: binds
Kd [2]: 0.17 nM
nd (concentration of binding sites for ChlI) [2]: 0.23 µM
Kd [3]: 0.35 nM
nd (concentration of binding sites for ChlI) [3]: 0.24 µM
Kd [4]: 14 nM
nd (concentration of binding sites for ChlI) [4]: 0.2 µM
Kd [5]: 52 nM
nd (concentration of binding sites for ChlI) [5]: 0.19 µM
B1: ChlI protein of the magnesium chelatase of Synechocystis sp. PCC 6803 (natural protein, UniProt P51634 1-357, looked up)
chain: MTATLAAPSKTRRVVFPFTAIVGQDEMKLALLLNVIDPKIGGVMIMGDRGTGKSTTIRALADLLPEIEVVANDPFNSSPSDPEMMSEEVRIRVDSQEPLSIVKKKVTMVDLPLGATEDRVCGTIDIEKALSEGVKAFEPGLLAKANRGILYVDEVNLLDDHLVDVLLDSAAGGWNTVEREGISIRHPARFVLVGSGNPEEGELRPQLLDRFGMHAEIRTVREPELRVKIVEQRTEFDQNPHPFCDQYQTEQEALQAKIVNAQNLLPQVTIDYDYRVKVSEVCAELDVDGLRGDIVTNRAAKALAAFEGRTEVTVDDISRVIVLCLRHRLRKDPLESIDSGSKVEKVFKRVFGVVDEA
notes: Magnesium chelatase subunit ChlI, Synechocystis sp; PCC 6803; no tag is named for ChlI; also called wild type ChlI; source: BL21(DE3), vector pET9a-ChlI, autoinducing medium ZYM-5052, purified
